# Assay results taken from the nanobody polyreactivity screen of Harvey et al. (2022).
# Test: yeast display, Sf9 membrane polyspecificity reagent, FACS + sequencing; frameworks hold sequencing errors
# How it was run: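 Polyreactivity labels are assigned by the sorting gate from which each nanobody was recovered. The gates were low and high (top ~1%), set on anti-HA fluorescence for expression and streptavidin fluorescence for reagent binding. Before sorting, galactose-induced (36–48 hours) yeast display cells were stained for 1 hour at 4 °C with 10% biotinylated, detergent-solubilized Sf9 membrane reagent.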
row,Sequence,polyreactivity (PSR sort gate)
1,QVQLVESGGGLVQAGGSLRLSCAASGSIFERYAMGWYRQAPGKERELVAAISWRGGSTYYADSVKGRFTISRDNAKNTVYLQMNSLKPEDTAVYYCAAGARYVKQGYGYWGQGTQVTVSS,high polyreactivity
2,QVQLVESGGGLVQAGGSLRLSCAASGSIFESNAMGWYRPAPGKEREFVAAIDQNDGSTNYADSVKGRFTISRDHAKNTVYLQMNSLKPEDTAVYYCAKYWGYLGYYEFDYWGQGTQVTVSS,low polyreactivity
3,QVQLVESGGGLVQAGGSLRLSCAASGSIFESYAMGWYRQAPGKERELVASISGGGSTYYADSVKGRFTISRDNAKNTVYLQMNSLKPEDTAGYYCATVYVRYRQSRLIRYGYWGQGTQVTVSS,high polyreactivity
4,QVQLVESGGGLVQAGGSLRLSCAASGSIFESYARGWYRHSPGKERELVADITYHGGITYYADSVKGRFTISRDNAKNNFYLQMNSLKPEDTSVYYCAAESEKWYNYVLSYDWEYDYWGQGTQVTVSS,low polyreactivity
5,QVQLVESGGGLVQAGGSLRLSCAASGSIFESYVMGWSRPAPGTEREMVAAISSGGSTYYADSVKGRFTISRDNAKNTVYLQMNSLKPEDTAVYYCAANYDGGYLDYEAGYRLEYDYWGQGTQVTVSS,low polyreactivity
6,QVQLVESGGGLVQAGGSLRLSCAASGSIFESYVMGWYRQAPGKERELVAAISSGGSTYYADSVKGRFTISRDNAKNTVYLQMNSLKPEDTAVYYCNTEVVRFKYDYWGQGTQVTVSS,low polyreactivity
7,QVQLVESGGGLVQAGGSLRLSCAASGSIFEVNAMGWYRQAPGKERELVAAISCSGGSTYYADSVKGRFTISRDNAKNTVYLQMNSLKPEDTAVYYCAARPAGYSGRKLYYWGQGTQVTVSS,low polyreactivity
8,QVQLVESGGGLVQAGGSLRLSCAASGSIFEVNAMGWYRQAPGKERELVAAISFSGDSTYYADSVKGRFTISRDNAKNTVYLQMNSLKPEDTAVYYCAAEQYVAWIDYLYDYWGQGTQVTVSS,high polyreactivity
9,QVQLVESGGGLVQAGGSLRLSCAASGSIFEVYAMGWYRQAPGKERELVAAINYTGGSTYYADSVKGRFTISRDNAKNTVYLQMNSLKPEDTAVYYCARDTSGIGTRYDYWGQGTQVTVSS,low polyreactivity
10,QVQLVESGGGLVQAGGSLRLSCAASGSIFEWYAMGWYRQAPGKERELVADISSLGSTYYADSVKGRFTISRDNAKNTVYLQMNSLKPEDTAVYYCNTSYIIWYDSWGQGTQVTVSS,low polyreactivity
11,QVQLVESGGGLVQAGGSLRLSCAASGSIFEYNAMGWYRPAPGKERELVAAISWSSGTTYYADSVKGRFTISLDNAKNSVYLQMNSLKPEDTAVYYCNAGRYGKDSDYWGQGTQVTVSS,low polyreactivity
12,QVQLVESGGGLVQAGGSLRLSCAASGSIFEYTGMGWYRQAPGKERELVAAITTTGTTDYADSVKGRFTISRDNAKNTVYLQMNSLKPEDTAVYYCAADYTYYYKVEYDYWGQGTQVTVSS,low polyreactivity
13,QVQLVESGGGLVQAGGSLRLSCAASGSIFFAYDMGWYRQAPGKERELVAAISNIDGSTYYADSVKGRFTISRDNAKNTVYLQMNSVKPEDTAVYYCATRVYYLYDYWGQGTQVTVSS,low polyreactivity
14,QVQLVESGGGLVQAGGSLRLSCAASGSIFFDNAMGWYRQAPGKERELVAAIDSSGGSTYYADSVKGRFTISRDNAKNTVYLQMNSLKPEDTAVYYCAREQYVPSPYSFFDEFEYWGQGTQVTVSS,low polyreactivity
15,QVQLVESGGGLVQAGGSLRLSCAASGSIFFDNAMGWYRQAPGKERELVATINSGGNTHYADSVKGRFTISRDNAKNTVYLQMNSLKPEDTAVYSCAADFRSDLVDGYNYWGQGTQVTVSS,low polyreactivity
16,QVQLVESGGGLVQAGGSLRLSCAASGSIFFDNAMGWYRQAPGKERELVATINSGGNTHYADSVKGRFTISRDNAKNTVYLQMNSLKPEDTAVYYCAADFPSDLVDGYNYWGQGTQVTVSS,low polyreactivity
17,QVQLVESGGGLVQAGGSLRLSCAASGSIFFDYALGWYRQAPGKERELVARITSSDSTNYADSVKGRFTISRDNAKNTVYLQMNSLKPEDTAVYYCNKDSTGDGYDYWGQGTQVTVSS,low polyreactivity
18,QVQLVESGGGLVQAGGSLRLSCAASGSIFFFNAMGWYRQAPGKERELVAAISESGTSTYYADSVKGRFTISRDNAKNTVYLQMNSLKPEDAAVYYCNVVFRYAYGVYYTPEFYYWGQGTQVTVSS,low polyreactivity
19,QVQLVESGGGLVQAGGSLRLSCAASGSIFFGNAMGLYRQAPGKERELVAAISTTGGSTYYADSVKGRFTISRDNAKNTVYLQMNSLKPEDTAVYYCNADRATWWEQWWYDYWGQGTQVTVSS,low polyreactivity
20,QVQLVESGGGLVQAGGSLRLSCAASGSIFFGYAMGWYRQAPGKEREFVAAITASGVRTYYADSVKGRFTISRDNAKNTVYLQMNSLKPEDTAVYYCAARIGTGVLPARGAKSHMDYWGQGTQVPVSS,low polyreactivity
21,QVQLVESGGGLVQAGGSLRLSCAASGSIFFLNAMGWYRQAPGKERELVAAITNVGSTYYADSVKGRFTISRDNAKNTVYLQMNSLKPEDTAVYYCNADPGEVLVGYDYWGQGTEVTVSS,low polyreactivity
22,QVQLVESGGGLVQAGGSLRLSCAASGSIFFLYAMGWYRQAPGKERELVAAISRDGRTNYADSVKGRFTISRDNAKNTVYLQMNSLKPEDTAVYYCAKDGNHPGAVGYGYWGQGTQVTVSS,low polyreactivity

row,Sequence,polyreactivity (PSR sort gate)
1,QVQLVESGGGLVQAGGSLRLSCAASGSIFFLYAMGWYRQAPGKERELVAGINLSGGSTYYADSVKGRFTISRDNAKNTVYLQMNSLKPEDTAVYYCNAYLPSPYSSSYIFDYDSWGQGTQVTVSS,low polyreactivity
2,QVQLVESGGGLVQAGGSLRLSCAASGSIFFLYTMGWYRQARGKERELVAAITRNGGSTYYADSVKGRFTISRDNAKNTVYLQMNSLKPEDTAVYYCNALRWYSYNYWGQGTQVTVSS,high polyreactivity
3,QVQLVESGGGLVQAGGSLRLSCAASGSIFFNYAMGWYRQAPGKERELVAAISSNGGRTYYADSVKGRFTISRDNAKNTVYLQMNSLKPEDTAVYYCAARVYDYPRFGYWGQGTQVTVSS,high polyreactivity
4,QVQLVESGGGLVQAGGSLRLSCAASGSIFFPYAMGWYRQAPGKERELVAAITRSGGRTYYADSVKGRFTISRDNAKNTVYLQMNSLKPEDTAVYYCAAGPWYNFYDSRPWFSYDYWGQGTQVTVSS,low polyreactivity
5,QVQLVESGGGLVQAGGSLRLSCAASGSIFFPYAMGWYRQAPGKERELVAASTRSGGRTYYADSVKGRFTISRDNAKNTVYLQMNSLKPEDTAVYYCAAGPWYKFYDWRPWFSYDYWGQGTQVTVSS,low polyreactivity
6,QVQLVESGGGLVQAGGSLRLSCAASGSIFFRYAMGWYRPAPGKERELVAAISSSGGSTYYADSVKGRFTISRDNAKNTVYLQMNSLKPEDTAVYYCAARYYSKYYYSPFDYWGQGTQVTVSS,high polyreactivity
7,QVQLVESGGGLVQAGGSLRLSCAASGSIFFRYTMGWYRQAPGKERELVAAITGDGGSTYADSVKGRFTISRDNAKNTVYLQMNSLNPEDTAVYYCAALSTTGIWGTVSTYYYWGQGTQVTVSS,low polyreactivity
8,QVQLVESGGGLVQAGGSLRLSCAASGSIFFSNAMGRYRQAPGKERELVAGIRSGGITNYADSVKGRFTISRDNAKNTVYLQMNSLKPEDTAVYYCNADLAPSTPYFYYFPVRRDYWGQGTQVTVSS,low polyreactivity
9,QVQLVESGGGLVQAGGSLRLSCAASGSIFFSNTMGWYRQAPGKERELVARITWSGTSTNYADSVKGRFTISRDNAKNTVYLQMNSLKPEDTAVYYCNAGFYTSAGYDYWGQGTQVTVSS,high polyreactivity
10,QVQLVESGGGLVQAGGSLRLSCAASGSIFFSNVMGWSRPAPGKERELVAAITRGGGTNYADSVKGRFTISRDNAKNTVYLQMNSLKPEDTAVYYCNRDPQKYRWIPRYDYWGQGTQVTVSS,low polyreactivity
11,QVQLVESGGGLVQAGGSLRLSCAASGSIFFSYAMGWYRQAPGKERELVATITTSGGRTRYADSVKGRFTISRDNAKNTVYLQMNSLKPEETAVYYCAAAPWDAPWSGYEYWGQGTQVTVSS,high polyreactivity
12,QVQLVESGGGLVQAGGSLRLSCAASGSIFFVYAMGWYRQAPGKERELVAGISGRDGSTYYADSVKGRFTISRDNAKNTVYLQMNSLKPEDTAVYYSARVYWGQGTQVTVSS,low polyreactivity
13,QVQLVESGGGLVQAGGSLRLSCAASGSIFFWYTMGWYRQAPGKERELVATITGSGSSTTYADSVKGRFTISRDYAKNTVYLQMNSLKPEDTAVYYCAAADIIDHSFPYDYWGQGTQVTVSS,low polyreactivity
14,QVQLVESGGGLVQAGGSLRLSCAASGSIFFYNTMGWYRQAPGKERELVAAISASGGRTYYADSVKGRFTISRDNAKNTVYLQMISLKPEDTAVYYCAVRVPYRGYTRYDYWGQGTQVTVSS,high polyreactivity
15,QVQLVESGGGLVQAGGSLRLSCAASGSIFFYNTMGWYRQAPRKERELVAAISSSGRTYYADSVKGRFTISRDNAKNTVYLQMNSLKPEDTAVYYCAKRTWRGYDYWGQGTQVTVSS,high polyreactivity
16,QVQLVESGGGLVQAGGSLRLSCAASGSIFFYYAMGWYRPAPGKERELVAAITSGGTTNYADSVNGRFTISRDNAKNTVYLQMNSLKPEDTAVYYCAVAGPRYAFFEYDYWGQGTQVTVSS,low polyreactivity
17,QVQLVESGGGLVQAGGSLRLSCAASGSIFFYYAMGWYRQAPGKERELVAAINSDGSTNYADSVKGRFTISRDNAKNTVYLQMNSVKPEDTAVYYCAADYVYYYHEYDYWGQGTQVTVSS,low polyreactivity
18,QVQLVESGGGLVQAGGSLRLSCAASGSIFFYYAMGWYRQAPGKERELVAAINWTGGRTYYADSVKGRFTISRDNAKNTVYLQMNSLKPEDTAVYYWAAEYYGQHDTYEYWGQGTQVTVSS,high polyreactivity
19,QVQLVESGGGLVQAGGSLRLSCAASGSIFFYYAMGWYRQAPGKERELVAAITGSGGSTYYADSVKGRFTISRDNAKNTVYLQMNSLKPEDTAVYSCAADRTVRAVYYGYGYWGQGTQVTVSS,low polyreactivity
20,QVQLVESGGGLVQAGGSLRLSCAASGSIFGANTMGWYRQAPGKERELVAAISSGGNTYYADSVKGRFTISRDNAKNTVYLQMNSLKPEDTAVYYCNAQTRYRYQYGYLGGTGYNYWGQGTQVTVSS,low polyreactivity
21,QVQLVESGGGLVQAGGSLRLSCAASGSIFGANTMGWYRQAPGKERELVAGITSGARTYYADSVKGRFTISRDNAKNTVYLQMNSLKPEDTAVYYCAAQYAWRRYGYWGQGTQVTVSS,high polyreactivity
